Experimental data taken from patent US20230242662A1 (BIOATLA, published 2023).

Columns and labels:
[1] = molecular target: T1, recombinant cyno CD46 antigen (cynomolgus, UniProt A0A2K5WCL8 35-328); assay: ELISA, coated cyno CD46; EC50 at pH 7.4 over EC50 at pH 6.0
T1 construct: extracellular domain; Plate-coated antigen of the ELISA; also called cynomolgus CD46 extracellular domain
T1 sequence: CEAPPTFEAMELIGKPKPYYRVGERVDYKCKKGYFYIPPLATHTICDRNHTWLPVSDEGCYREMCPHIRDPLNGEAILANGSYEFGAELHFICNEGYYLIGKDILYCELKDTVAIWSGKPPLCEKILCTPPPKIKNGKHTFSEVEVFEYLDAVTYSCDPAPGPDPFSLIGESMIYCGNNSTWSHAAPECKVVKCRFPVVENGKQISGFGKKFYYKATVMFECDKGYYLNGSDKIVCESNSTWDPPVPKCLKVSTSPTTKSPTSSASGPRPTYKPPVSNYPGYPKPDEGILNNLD
Experimental: The binding activities of conditionally active anti-CD46 antibodies to cyno CD46 were measured by ELISA and are shown in FIGS. 3-4. The EC50 values for binding to the cyno CD46 at pH 6.0 and pH 7.4 for the conditionally active anti-CD46 antibodies are summarized in Table 2.
[…] Cover with sealing film and place the plate onto a plate shaker set to 50 rpm for 60 minutes at room temperature. [0351] 6) Decant plates and tap out residual liquid on a stack of paper towels. [0352] 7) Serially dilute test articles in 3-fold dilutions starting at 3000 ng/mL in pH 6.0 or pH 7.4 ELISA incubation buffer. [0353] 8) Add 100 μL/well of diluted test articles to the plates [0354] 9) Cover with sealing film and place the plates onto a plate shaker set to 50 rpm for 60 minutes at room temperature. […] 10) Decant plates and tap out residual liquid on a stack of paper towels. [0356] 11) Wash wells three times by dispensing 200 μL of pH 6.0 or pH 7.4 ELISA wash buffer to the wells and completely aspirate the contents. [0357] 12) Dilute the HRP secondary antibody at 1:2500 in pH 6.0 or pH 7.4 ELISA incubation buffer. [0358] 13) Add 100 μL HRP secondary antibody diluted in pH 6.0 or pH 7.4 ELISA incubation buffer to each well [0359] 14) Cover with sealing film and place the plates onto a plate shaker set to 50 rpm for 60 minutes at room temperature. [0360] 15) Decant plates and tap out residual liquid on a stack of paper towels. [0361] 16) Wash wells three times by dispensing 200 μL of pH 6.0 or pH 7.4 ELISA wash buffer to the wells and completely aspirate the contents. [0362] 17) Dispense 50 μL per well of the TMB substrate solution into all wells of the plates. Incubate at room temperature for about 2 minutes 15 seconds or 2 minutes. […] 18) Add 50 μL per well of 1N HCl into all wells of the plates. Read plates at 450 nm using PerkinElmer, EnSpire 2300 Multilabel Reader.

[2] = molecular target: T2, cyno CD46 expressed on 293 cells (cynomolgus); assay: FACS, 293 cells expressing cyno CD46; EC50 at pH 7.4 over EC50 at pH 6.0
T2 construct: whole, on cells; The construct on the cells is not described; also called HEK 293 cells expressing cyno CD46
Experimental: (§1) A similar FACS analysis was also carried out using 293 cells expressing cyno CD46. […] The EC50 values for binding to the 293 cells expressing cyno CD46 by the conditionally active anti-CD46 antibodies are summarized in Table 6.

huCD46-His [3] = molecular target: T3, huCD46-His (human, UniProt P15529 35-343); assay: SPR, huCD46-His immobilised, antibody as analyte, pH 7.4
T3 construct: extracellular domain; Immobilised by amine coupling on the SPR chip; It may be the same protein as the ELISA antigen; also called Human CD46-His; human CD46; not shown: His tag
T3 sequence (looked up): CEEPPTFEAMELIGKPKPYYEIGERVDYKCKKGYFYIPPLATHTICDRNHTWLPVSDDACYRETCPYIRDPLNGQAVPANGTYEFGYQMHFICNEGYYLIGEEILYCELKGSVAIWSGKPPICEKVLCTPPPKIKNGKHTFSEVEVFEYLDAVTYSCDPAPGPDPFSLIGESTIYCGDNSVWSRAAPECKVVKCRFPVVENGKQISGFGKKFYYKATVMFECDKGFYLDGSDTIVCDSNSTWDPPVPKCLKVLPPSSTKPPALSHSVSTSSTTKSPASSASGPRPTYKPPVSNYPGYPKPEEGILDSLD
Experimental: (§2) Binding kinetics of anti-CD46 antibodies were measured by surface plasmon resonance on a SPR2/4 instrument (Sierra Sensors, Hamburg, Germany) and flat amine sensor chips. The SPR sensor contained four flow cells (FC1-FC4), each of which can be addressed individually or in groups. huCD46-His was immobilized in FC2, and cynoCD46-His was immobilized in FC4. No protein was immobilized in FC1 and FC3 which were used as control surfaces for FC2 and FC4, respectively.
(§3) All injections were done at a flow rate of 25 μL/min and 25° C. The sensor surface was activated with 1-ethyl-3-(3-dimethylaminopropyl)-carbodiimide (EDC) and N-hydroxysuccinimide (NHS) (200 mM/50 mM) for 480 seconds. Human CD46-His (2 μg/mL in 10 mM NaAc, pH5.0) was injected for 480s and the surface was inactivated by injecting 1M ethanolamine-HCl for 480s. cynoCD46-His was immobilized using the same conditions as described for huCD46-His, except that it was diluted into 10 mM NaAc buffer pH4.5. The control surface was activated and deactivated using the same conditions, but without injecting protein. PBST buffer (PBS pH7.4 with 0.05% TWEEN20™) was used as running buffer for the surface preparation. The running solution was switched to PBST with 30 mM sodium bicarbonate with the pH adjusted as indicated in the figures before the analyte injections. The instrument was equilibrated with the running solution for one hour before the first analyte injection.
(§4) The off-rate was measured for 360 s. The chip surface was regenerated after each cycle of interaction by injecting 6 μL of 10 mM glycine (pH 2.0). Flow cells 1 and 3 without immobilized protein were used as control surfaces for reference subtraction.

[4] = molecular target: T2, cyno CD46 expressed on 293 cells; assay: FACS, 293 cells expressing cyno CD46, pH 7.4
Experimental: as §1

cynoCD46-His [5] = molecular target: T4, cynoCD46-His (cynomolgus, UniProt A0A2K5WCL8 35-328); assay: SPR, cynoCD46-His immobilised, antibody as analyte, pH 6.5
T4 construct: extracellular domain; Immobilised by amine coupling on the SPR chip; not shown: His tag
T4 sequence: T1 sequence
Experimental: as §2, §3, §4

huCD46-His [6] = molecular target: T3, huCD46-His; assay: SPR, huCD46-His immobilised, antibody as analyte, pH 6.5
Experimental: as §2, §3, §4

cynoCD46-His [7] = molecular target: T4, cynoCD46-His; assay: SPR, cynoCD46-His immobilised, antibody as analyte, pH 6.0
Experimental: as §2, §3, §4

[8] = molecular target: T2, cyno CD46 expressed on 293 cells; assay: FACS, 293 cells expressing cyno CD46, pH 6.0
Experimental: as §1

huCD46-His [9] = molecular target: T3, huCD46-His; assay: SPR, huCD46-His immobilised, antibody as analyte, pH 6.0
Experimental: as §2, §3, §4

cynoCD46-His [10] = molecular target: T4, cynoCD46-His; assay: SPR, cynoCD46-His immobilised, antibody as analyte, pH 7.4
Experimental: as §2, §3, §4

- ratio (ph 7.4/pH 6.0) [1]: 13.3
- Ratio (pH 7.4/6.0) [2]: 14.8
- Kd (huCD46-His [3]): 8.79 nM
- koff (huCD46-His [3]): 0.00225 s⁻¹
- kon (huCD46-His [3]): 256000 M⁻¹ s⁻¹
- EC50 [4]: 2.92 µg/mL
- Kd (cynoCD46-His [5]): 1.47 nM
- koff (cynoCD46-His [5]): 0.0017 s⁻¹
- kon (cynoCD46-His [5]): 1.16e+06 M⁻¹ s⁻¹
- Kd (huCD46-His [6]): 5.78 nM
- koff (huCD46-His [6]): 0.00282 s⁻¹
- kon (huCD46-His [6]): 488000 M⁻¹ s⁻¹
- Kd (cynoCD46-His [7]): 1.45 nM
- koff (cynoCD46-His [7]): 0.00184 s⁻¹
- kon (cynoCD46-His [7]): 1.27e+06 M⁻¹ s⁻¹
- EC50 [8]: 0.198 µg/mL
- Kd (huCD46-His [9]): 7.51 nM
- koff (huCD46-His [9]): 0.00404 s⁻¹
- kon (huCD46-His [9]): 539000 M⁻¹ s⁻¹
- Kd (cynoCD46-His [10]): 3.88 nM
- koff (cynoCD46-His [10]): 0.00192 s⁻¹
- kon (cynoCD46-His [10]): 495000 M⁻¹ s⁻¹
B1: BAP133-2-02-12 (antibody, V domains shown)
VH: EVQLVESGGGLVQPGGSLRLSCAASGGSVSSYDISWIRQSPSRGLEWLGVIWTDGGTNYNSAFMSRFTISRDDSKNTAYLQMNSLKTEDTAVYYCERVYDGYPWFAYWGQGTLVTVSS
VL: AIQLTQSPSSLSASVGDRVTITCRALQGISNYLNWYQQKPGKAPKLLIYYTSSLHSGVPSRFSGSGSGTEFTLTISSLQPDDFATYYCQQYIKLPWTFGQGTKVEIK
notes: also called BAP133-02-02-12; CPE hit BAP133-2-02-12
